Where two headings read alike, the source gives them in different places.
How the values were obtained:
[1] = target: T1, human CD73 expressed on cells (human) (UniProt P21589); assay: flow cytometry, MDA-MB-231 cells, anti-human Fc detection, gMFI; with 1,000 µM AMP
T1 sequence (looked up): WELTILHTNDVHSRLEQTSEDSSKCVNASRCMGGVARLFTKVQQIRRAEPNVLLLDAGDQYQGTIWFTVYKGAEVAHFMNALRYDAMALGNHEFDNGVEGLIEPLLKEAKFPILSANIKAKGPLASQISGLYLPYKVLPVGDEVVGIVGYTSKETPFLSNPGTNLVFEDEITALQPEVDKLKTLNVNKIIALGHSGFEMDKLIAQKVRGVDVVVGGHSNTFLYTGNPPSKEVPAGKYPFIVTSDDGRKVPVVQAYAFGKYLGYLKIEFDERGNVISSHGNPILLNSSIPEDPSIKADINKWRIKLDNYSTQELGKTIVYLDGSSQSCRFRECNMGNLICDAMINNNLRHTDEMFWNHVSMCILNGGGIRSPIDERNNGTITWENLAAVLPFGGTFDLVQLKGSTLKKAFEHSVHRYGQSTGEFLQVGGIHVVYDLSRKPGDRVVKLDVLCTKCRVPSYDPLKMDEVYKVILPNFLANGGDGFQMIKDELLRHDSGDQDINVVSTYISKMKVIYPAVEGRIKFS

[2] = target: T1, human CD73 expressed on cells (human); assay: flow cytometry, MDA-MB-231 cells, anti-human Fc detection, gMFI; with 10 µM AMP
[3] = target: T1, human CD73 expressed on cells (human); assay: cell-based or functional assay
[4] = target: T1, human CD73 expressed on cells (human); assay: cell-based or functional assay; remark: listed apart in the source
[5] = target: T1, human CD73 expressed on cells (human); assay: flow cytometry, MDA-MB-231 cells, anti-human Fc detection, gMFI; 0 µM AMP
[6] = target: T1, human CD73 expressed on cells (human); assay: flow cytometry, MDA-MB-231 cells, anti-human Fc detection, gMFI; with 1 nM AB680
[7] = target: T2, recombinant human CD73 enzyme (human) (UniProt P21589); assay: cell-based or functional assay
T2 sequence (looked up): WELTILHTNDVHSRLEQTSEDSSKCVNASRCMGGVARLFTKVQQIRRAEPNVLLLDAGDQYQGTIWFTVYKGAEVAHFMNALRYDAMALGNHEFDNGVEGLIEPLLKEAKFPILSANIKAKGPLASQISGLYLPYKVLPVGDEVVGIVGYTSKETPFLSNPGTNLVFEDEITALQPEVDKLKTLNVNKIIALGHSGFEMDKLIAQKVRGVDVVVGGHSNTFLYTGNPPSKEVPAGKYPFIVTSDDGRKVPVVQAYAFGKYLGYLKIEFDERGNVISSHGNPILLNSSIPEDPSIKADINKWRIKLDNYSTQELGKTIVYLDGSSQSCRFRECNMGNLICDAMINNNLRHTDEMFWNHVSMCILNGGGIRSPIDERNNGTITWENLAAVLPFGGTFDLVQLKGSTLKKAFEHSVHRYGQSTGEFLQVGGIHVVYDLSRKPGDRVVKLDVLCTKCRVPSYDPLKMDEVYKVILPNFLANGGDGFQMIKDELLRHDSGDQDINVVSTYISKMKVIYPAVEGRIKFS

[8] = target: T1, human CD73 expressed on cells (human); assay: cell-based or functional assay; remark: listed apart in the source
[9] = target: T1, human CD73 expressed on cells (human); assay: flow cytometry, MDA-MB-231 cells, anti-human Fc detection, gMFI; with 100 µM AMP
[10] = target: T1, human CD73 expressed on cells (human); assay: flow cytometry, MDA-MB-231 cells, anti-human Fc detection, gMFI; no AB680 (column headed No AMP)
[11] = target: T1, human CD73 expressed on cells (human); assay: flow cytometry, MDA-MB-231 cells, anti-human Fc detection, gMFI; with 100 µM AMP; remark: listed apart in the source
[12] = target: T1, human CD73 expressed on cells (human); assay: flow cytometry, MDA-MB-231 cells, anti-human Fc detection, gMFI; with 1,000 µM AMP; remark: listed apart in the source
[13] = target: T1, human CD73 expressed on cells (human); assay: flow cytometry, MDA-MB-231 cells, anti-human Fc detection, gMFI
[14] = target: T1, human CD73 expressed on cells (human); assay: flow cytometry, MDA-MB-231 cells, anti-human Fc detection, gMFI; with 10 µM AMP; remark: listed apart in the source
[15] = target: T1, human CD73 expressed on cells (human); assay: flow cytometry, MDA-MB-231 cells, anti-human Fc detection, gMFI; with 10 nM AB680
[16] = target: T1, human CD73 expressed on cells (human); assay: flow cytometry, MDA-MB-231 cells, anti-human Fc detection, gMFI; with 100 nM AB680
[17] = target: T1, human CD73 expressed on cells (human); assay: flow cytometry, MDA-MB-231 cells, anti-human Fc detection, gMFI; with 1 nM AB680; remark: listed apart in the source
[18] = target: T1, human CD73 expressed on cells (human); assay: flow cytometry, MDA-MB-231 cells, PE anti-human Fc detection, % labelled cells
[19] = target: T1, human CD73 expressed on cells (human); assay: flow cytometry, MDA-MB-231 cells, anti-human Fc detection, gMFI; with 10 nM AB680; remark: listed apart in the source
[20] = target: T1, human CD73 expressed on cells (human); assay: flow cytometry, MDA-MB-231 cells, anti-human Fc detection, gMFI; no AMP
[21] = target: T1, human CD73 expressed on cells (human); assay: flow cytometry, MDA-MB-231 cells, anti-human Fc detection, gMFI; 0 nM AB680
[22] = target: T1, human CD73 expressed on cells (human); assay: flow cytometry, MDA-MB-231 cells, anti-human Fc detection, gMFI; with 100 nM AB680; remark: listed apart in the source

B1: Mupadolimab (antibody, INN chains, looked up, V domains shown)
VH: QVQLVQSGAEVEKPGASVKVSCKASGYTFTSYWITWVRQAPGQGLEWMGDIYPGSGNTNYNEKFKTRVTITADKSTSTAYMELSSLRSEDTAVYYCAKEGGLTTEDYALDYWGQGTLVTVSS
VL: EIVLTQSPATLSLSPGERATLSCRASKNVSTSGYSYMHWYQQKPGQAPRLLIYLASNLESGIPPRFSGSGYGTDFTLTINNIESEDAAYYFCQHSRELPFTFGQGTKVEIK
Q: What does the source list for B1?
A: IC50 [1]: 0.2 nM; IC50 [2]: 0.048 nM; Cell internalization EC50 (nM), Fab-ZAP saporin assay, MDA-MB-231 [3]: 0.06 nM; % CD73 receptor internalization, MDA-MB-231 [4]: > 60%; IC50 [5]: 0.1 nM; IC50 [6]: 0.88 nM; Cell free CD73 inhibition IC50 [7]: > 100 nM; % CD73 receptor internalization, MDA-MB-231 [8]: > 70%; CD73 inhibition, human PBMCs, 3 h IC50 [nM] [8]: 2.85 nM; CD73 inhibition, human PBMCs, 3 h median IC50 [nM] [8]: 9.27 nM; CD73 inhibition, human PBMCs, 24 h IC50 [nM] [8]: 44.2 nM; CD73 inhibition, human PBMCs, 24 h median IC50 [nM] [8]: 29.9 nM; Cell internalization EC50 (nM), Fab-ZAP saporin assay, MDA-MB-231 [8]: 0.055 nM; Cell-based CD73 inhibition IC50 (nM), MDA-MB-231 cells [8]: 3.82 nM; PBMC activation (CD25+), 30 µM AMP EC50 [nM] [8]: 576 nM; PBMC activation, CD4+CD25+ EC50 [nM] (median, n = 3) [8]: 28 nM; PBMC activation, CD8+CD25+ EC50 [nM] [8]: 932 nM; PBMC activation, CD8+CD25+ EC50 [nM] (median, n = 3) [8]: 84 nM; PBMC activation, CD8+Granzyme B+ EC50 [nM] (median, n = 3) [8]: 83 nM; PBMC activation, CD8+granzyme B+ EC50 [nM] [8]: 63.1 nM; cell-based CD73 enzyme inhibition IC50 (MDA-MB-231 cells) [8]: 1.16 nM; inhibition of adenosine production (AMP conversion by CellTiter-Glo), human PBMCs, EC50 [nM] [8]: 10 nM; IC50 [9]: 0.16 nM; IC50 [10]: 0.09 nM; IC50 [11]: 0.12 nM; IC50 [12]: 0.14 nM; fold reduction of binding at high AMP concentration [13]: 2 fold; IC50 [14]: 0.12 nM; IC50 [15]: 1.54 nM; IC50 [16]: 4.19 nM; IC50 [17]: 1.39 nM; EC50 [18]: 1.25 nM; IC50 [19]: 2.59 nM; IC50 [20]: 0.025 nM; IC50 [21]: 0.1 nM; IC50 [22]: 8.48 nM
